This data set can be described thus: soluble on expression in E. coli; label from the status in PepcDB or PDB records.
In the case of “MAHHHHHHMATASPSLSSNCFIDAATYFESRRGRRTFPERNASQILLGDASANSPIEEEEGLVRRQAQASAPVAWQQQQQQRHQQMRPTRRPRGPGIAFAARIEASGFPAAASRRSACADVVPECLYQYDTSELRTHKRPAQMPNRVKQCDRNLQLFLRPEEQVVRSAAAAVMLGESRDGQLSYSRYPSSQAHEHSKDPRMTADAIEASSSPFSDSAPHDQAMMTDRRSCLPYAPAAELDDSLLLKESLSSDRLRLLEHLYQRERSRLRGASRSVERDVGAVAEEDARAWHGQAPVSSLPWGTTVLPFRHGDSADVAANLPSLRRRAERSSVRRDDGDGAVHAHPLQGRDWQPWERKYACEAHPVTPRTRSSFHASSQIADSNERSDNDNDRNGGVDYTHAKSFGNATCSANWRCASASHRRRVTGSYDDFSDSTEARNEPPKHTTRIGSRMAMADAAPRVPHISAWFAPLRNDRVARQAHHTRSADHARASHSLRGEKERQAGQLQRHISAASPSVQGSSSSTAAGARPVETSPAASARTQATVTLSDVCTHQPLRAPSLQQRQHGKLAGSAASSPLFPTSSARVQGRDDAALTLRDVCGALNTAAVVM”, the “soluble on expression in E. coli” value is on record as “not soluble”. For the sequence “NCCVKGNSIYPQKTSTKQTGLMLDIARHFYSPEVIKSFIDTISLSGGNFLHLHFSDHENYAIESHLLNQRAENAVQGKDGIYINPYTGKPFLSYRQLDDIKAYAKAKGIELIPELDSPNHMTAIFKLVQKDRGVKYLQGLKSRQVDDEIDITNADSITFMQSLMSEVIDIFGDTSQHFHIGGDEFGYSVESNHEFITYANKLSYFLEKKGLKTRMWNDGLIKNTFEQINPNIEITYWSYDGDTQDKNEAAERRDMRVSLPELLAKGFTVLNYNSYYLYIVPKASPTFSQDAAFAAKDVIKNWDLGVWDGRNTKNRVQNTHEIAGAALSIWGEDAKALKDETIQKNTKSLLEAVIHKTNGDEHHHHHH”, the “soluble on expression in E. coli” value is “soluble”. “MGHHHHHHSHMPQFSPSYSFPVQIYYEDTDFSGVVYHPNFLKYFERAREHVIGAEQLRNLWQQQQLGFAVYRSDMLCHEGVEFADIIDIRTKFYFESKYRTVWHQEIWRPNGKKPAVTATIEMVCMNQARQLAPMPAELITQLSLGM”: the “soluble on expression in E. coli” value is “soluble”. With “GATVHELSRDKKKDTVPWFPRTIQELDRFANQILSYGAELDADHPGFKDPVYRARRKQFADIAYNYRHGQPIPRVEYMEEEKKTWGTVFKTLKSLYKTHACYEYNHIFPLLEKYCGFHEDNIPQLEDVSQFLQTCTGFRLRPVAGLLSSRDFLGGLAFRVFHCTQYIRHGSKPMYTPEPDICHELLGHVPLFSDRSFAQFSQEIGLASLGAPDEYIEKLATIYWFTVEFGLCKQGDSIKAYGAGLLSSFGELQYCLSEKPKLLPLELEKTAIQNYTVTEFQPLYYVAESFNDAKEKVRNFAATIPRPFSVRYDPYTQRIEVLDNT”, the “soluble on expression in E. coli” value is “soluble”. “MIITTTNGIEGKRVVEYKGIVCGEVISGVDFIKDFAAGLTNFFGGRSKSYEGELIEAREGAIREMKERAIQMGANAIIGVDIDYEVLGQGGNMLMVTASGTAVVIE”: the “soluble on expression in E. coli” value is “soluble”.

As to “DVQLQQSGPELKKPGETVKLSCKASGYTFTNFGLNWMKQAPGKGLKWMGWINTYTGESTYADDFKGRFAFSLETSASTAYLQINNVKNEDTATYFCARGFYYYGSRYFYFDYWGQGTTLTVSSAKTTAPSVYPLAPVCGDTTGSSVTLGCLVKGYFPEPVTLTWNSGSLSSGVHTFPAVLQSDLYTLSSSVTVTSSTWPSQSITCNVAHPASSTKVDKKIEPRGP”, the “soluble on expression in E. coli” value is “soluble”. In the case of “MPLENVMTDLKASSLRALKLMDLTTLNDDDTNEKVIALCHQAKTPVGNTAAICIYPRFIPIARKTLKEQGTPDIRIATVTNFPHGNDDIDIALAETRAAIAYGADEVDVVFPYRALIAGNEQVGFDLVKACKDACAAANVLLKVIIETGELKEEALIRKASEISIKAGADFIKTSTGKVPVNATPESARIMMEVIRDMGVSKTVGFKPAGGVRTAEDAQKFLAIADELFGADWADSRHYRFGASSLLASLLKALGHGDGKSASSY”, the “soluble on expression in E. coli” value is given as “not soluble”.

For the origin of these results see the DeepSol protein solubility set.
